Patent publication US20220177587A1 (Alpine Immune Sciences, Inc., published 2022)

What was measured:
human CTLA-4 = human CTLA-4 (human, UniProt P16410); test: flow cytometry, CHO/CTLA4 cells; MFI over CD80 WT IgV-Fc
human PD-L1 = human PD-L1 (human, UniProt Q9NZQ7); test: flow cytometry, CHO/PD-L1 cells; MFI over CD80 WT IgV-Fc
human CD28 [1] = molecular target: human CD28 (human, UniProt P10747); test: flow cytometry, Jurkat cells (CD28); MFI over CD80 WT IgV-Fc
human CD28 [2] = molecular target: human CD28 (human, UniProt P10747); test: cell-based or functional assay

B1: CD80 E35D/M47V/N48K/V68M/K89N IgV-Fc, delta linker (Fc fusion)
chain: VIHVTKEVKEVATLSCGHNVSVEELAQTRIYWQKDKKMVLTMMSGDVKIWPEYKNRTIFDITNNLSIMILALRPSDEGTYECVVLKYENDAFKREHLAEVTLSVKTHTCPPCPAPEAEGAPSVFLFPPKPKDTLMISRTPEVTCVVVDVSHEDPEVKFNWYVDGVEVHNAKTKPREEQYNSTYRVVSVLTVLHQDWLNGKEYKCKVSNKALPAPIEKTISKAKGQPREPQVYTLPPSREEMTKNQVSLTCLVKGFYPSDIAVEWESNGQPENNYKTTPPVLDSDGSFFLYSKLTVDKSRWQQGNVFSCSVMHEALHNHYTQKSLSLSPG
Fold change to WT CD80 (human CTLA-4): 2.6 fold
Fold change to WT CD80 (human PD-L1): 439 fold
Fold change to WT CD80 (human CD28 [1]): 83.7 fold

B2: CD80 E35D/D46V/M47L/V68M/L85Q/E88D IgV-Fc, delta linker (Fc fusion)
chain: VIHVTKEVKEVATLSCGHNVSVEELAQTRIYWQKDKKMVLTMMSGVLNIWPEYKNRTIFDITNNLSIMILALRPSDEGTYECVVQKYDKDAFKREHLAEVTLSVKTHTCPPCPAPEAEGAPSVFLFPPKPKDTLMISRTPEVTCVVVDVSHEDPEVKFNWYVDGVEVHNAKTKPREEQYNSTYRVVSVLTVLHQDWLNGKEYKCKVSNKALPAPIEKTISKAKGQPREPQVYTLPPSREEMTKNQVSLTCLVKGFYPSDIAVEWESNGQPENNYKTTPPVLDSDGSFFLYSKLTVDKSRWQQGNVFSCSVMHEALHNHYTQKSLSLSPG
Fold change to WT CD80 (human CTLA-4): 10.2 fold
Fold change to WT CD80 (human PD-L1): 484 fold
Fold change to WT CD80 (human CD28 [1]): 74.7 fold

B3: SIP 2: Variant CD80 IgV-GSG4S-Inert Fc (E35D, D46V, M47L, and V68M) (Fc fusion)
chain: VIHVTKEVKEVATLSCGHNVSVEELAQTRIYWQKDKKMVLTMMSGVLNIWPEYKNRTIFDITNNLSIMILALRPSDEGTYECVVLKYEKDAFKREHLAEVTLSVKADGSGGGGSEPKSSDKTHTCPPCPAPEAEGAPSVFLFPPKPKDTLMISRTPEVTCVVVDVSHEDPEVKFNWYVDGVEVHNAKTKPREEQYNSTYRVVSVLTVLHQDWLNGKEYKCKVSNKALPAPIEKTISKAKGQPREPQVYTLPPSRDELTKNQVSLTCLVKGFYPSDIAVEWESNGQPENNYKTTPPVLDSDGSFFLYSKLTVDKSRWQQGNVFSCSVMHEALHNHYTQKSLSLSPG
CD28 costimulation EC50, Jurkat/IL-2 luciferase reporter; SIP 2 (Supernatant) from Donor 1 Pan T-cells (human CD28 [2]): 0.282 nM
CD28 costimulation EC50, Jurkat/IL-2 luciferase reporter; SIP 2 (Supernatant) from Donor 2 Pan T-cells (human CD28 [2]): 0.75 nM
CD28 costimulation EC50, Jurkat/IL-2 luciferase reporter; SIP 2 (Supernatant) from Jurkat cells (human CD28 [2]): 0.75 nM

B4: SIP 4: Variant CD80 IgV-GSG4S-Inert Fc (H18Y, A26P, E35D, M47I, V68M, and A71G) (Fc fusion)
chain: VIHVTKEVKEVATLSCGYNVSVEELPQTRIYWQKDKKMVLTMMSGDINIWPEYKNRTIFDITNNLSIMILGLRPSDEGTYECVVLKYEKDAFKREHLAEVTLSVKADGSGGGGSEPKSSDKTHTCPPCPAPEAEGAPSVFLFPPKPKDTLMISRTPEVTCVVVDVSHEDPEVKFNWYVDGVEVHNAKTKPREEQYNSTYRVVSVLTVLHQDWLNGKEYKCKVSNKALPAPIEKTISKAKGQPREPQVYTLPPSRDELTKNQVSLTCLVKGFYPSDIAVEWESNGQPENNYKTTPPVLDSDGSFFLYSKLTVDKSRWQQGNVFSCSVMHEALHNHYTQKSLSLSPG
CD28 costimulation EC50, Jurkat/IL-2 luciferase reporter; SIP 4 (Supernatant) from Donor 1 Pan T-cells (human CD28 [2]): 0.153 nM
CD28 costimulation EC50, Jurkat/IL-2 luciferase reporter; SIP 4 (Supernatant) from Donor 2 Pan T-cells (human CD28 [2]): 0.221 nM
CD28 costimulation EC50, Jurkat/IL-2 luciferase reporter; SIP 4 (Supernatant) from Jurkat cells (human CD28 [2]): 0.221 nM

B5: SIP 3: Variant CD80 IgV-GSG4S-Inert Fc (H18Y, E35D, M47V, V68M, and A71G) (Fc fusion)
chain: VIHVTKEVKEVATLSCGYNVSVEELAQTRIYWQKDKKMVLTMMSGDVNIWPEYKNRTIFDITNNLSIMILGLRPSDEGTYECVVLKYEKDAFKREHLAEVTLSVKADGSGGGGSEPKSSDKTHTCPPCPAPEAEGAPSVFLFPPKPKDTLMISRTPEVTCVVVDVSHEDPEVKFNWYVDGVEVHNAKTKPREEQYNSTYRVVSVLTVLHQDWLNGKEYKCKVSNKALPAPIEKTISKAKGQPREPQVYTLPPSRDELTKNQVSLTCLVKGFYPSDIAVEWESNGQPENNYKTTPPVLDSDGSFFLYSKLTVDKSRWQQGNVFSCSVMHEALHNHYTQKSLSLSPG
CD28 costimulation EC50, Jurkat/IL-2 luciferase reporter; SIP 3 (Supernatant) from Donor 1 Pan T-cells (human CD28 [2]): 0.294 nM
CD28 costimulation EC50, Jurkat/IL-2 luciferase reporter; SIP 3 (Supernatant) from Donor 2 Pan T-cells (human CD28 [2]): 0.961 nM
CD28 costimulation EC50, Jurkat/IL-2 luciferase reporter; SIP 3 (Supernatant) from Jurkat cells (human CD28 [2]): 0.961 nM
